Source: paper PMC4213662

Key:
[1] = target: ribosome-nascent chain complex actively translating a 3'-truncated lepB mRNA encoding the first 155 amino acids (Cy3B-labeled 50S subunit) (E. coli (strain MC4100) | E. coli) (UniProt P00803); assay: FRET or BRET; as a1 but 250 nM EF-G (slower elongation)
[2] = target: ribosome-nascent chain complex actively translating a 3'-truncated lepB mRNA encoding the first 155 amino acids (Cy3B-labeled 50S subunit) (E. coli (strain MC4100) | E. coli) (UniProt P00803); assay: FRET or BRET; single-molecule FRET in zero-mode waveguides; 100 nM Cy5-SRP in solution, RNCs translating lepB mRNA (155 amino acids) held by the biotinylated mRNA; 750 nM EF-G; Tris-based polymix buffer with 5 mg/ml BSA and 10 µM Blocking oligo; rates estimated from the time at which curves reach 50%

Work on “Cy5-labeled E. coli signal recognition particle (Ffh(E153C)-Cy5 reconstituted with 4.5S RNA) (from UniProt P0AGD7 1-453) (complex)” yielded a half-time of arrival after the initial binding event (2nd–10th arrivals) [1] of 12 s, a half-time of first arrival [1] of 350 s and a half-time of arrival after the initial binding event (2nd–10th arrivals) [2] of 5 s. It also gave a half-time of first arrival [2] of 280 s and a kon [2] of 1.8e+06 M⁻¹ s⁻¹.
